Source: the Human Domainome abundance scans (Beltran et al. 2025)
± gives the uncertainty stated by the source.

Test: abundance fitness (aPCA) (normalised: wild type 0, dead -1); higher = more abundant; growth selection in yeast, the domain comes from the species named
Settings: Homo sapiens

“Transcriptional activator Myb T177K, P10242” and “Transcriptional activator Myb M189C, P10242” are within error of each other in abundance fitness: -0.204 ± 0.092 for the first, -0.311 ± 0.095 for the second.

“Transcriptional activator Myb T188D, P10242” and “Transcriptional activator Myb S203M, P10242” are within error of each other in abundance fitness: -0.015 ± 0.057 for the first, -0.054 ± 0.15 for the second.

“Transcriptional activator Myb K204A, P10242” and “Transcriptional activator Myb N183H, P10242” are within error of each other in abundance fitness: 0.054 ± 0.091 for the first, 0.141 ± 0.17 for the second.

Compared with “Transcriptional activator Myb K143I, P10242”, “Transcriptional activator Myb E201N, P10242” is higher in abundance fitness: -0.233 ± 0.14 for the first, 0.095 ± 0.14 for the second.

“Transcriptional activator Myb K171V, P10242” and “Transcriptional activator Myb R190L, P10242” are within error of each other in abundance fitness: -0.19 ± 0.088 for the first, -0.131 ± 0.061 for the second.

Going from “Transcriptional activator Myb Q200A, P10242” to “Transcriptional activator Myb D152V, P10242”, the abundance fitness falls from 0.011 ± 0.068 to -0.304 ± 0.067.

“Transcriptional activator Myb G197F, P10242” and “Transcriptional activator Myb K192H, P10242” are within error of each other in abundance fitness: -0.148 ± 0.39 for the first, -0.156 ± 0.2 for the second.

“Transcriptional activator Myb G175W, P10242” and “Transcriptional activator Myb K204D, P10242” are within error of each other in abundance fitness: -0.168 ± 0.077 for the first, -0.164 ± 0.15 for the second.

“Transcriptional activator Myb E151I, P10242” and “Transcriptional activator Myb N179P, P10242” are within error of each other in abundance fitness: -0.49 ± 0.14 for the first, -0.489 ± 0.097 for the second.

“Transcriptional activator Myb S202Y, P10242” and “Transcriptional activator Myb G197H, P10242” are within error of each other in abundance fitness: -0.218 ± 0.17 for the first, -0.395 ± 0.21 for the second.

Compared with “Transcriptional activator Myb Y198L, P10242”, “Transcriptional activator Myb Q200F, P10242” is lower in abundance fitness: 0.027 ± 0.089 for the first, -0.302 ± 0.11 for the second.

“Transcriptional activator Myb T177L, P10242” and “Transcriptional activator Myb I169C, P10242” are within error of each other in abundance fitness: -0.42 ± 0.068 for the first, -0.521 ± 0.14 for the second.

“Transcriptional activator Myb E150N, P10242” and “Transcriptional activator Myb S187V, P10242” are within error of each other in abundance fitness: -0.004 ± 0.15 for the first, -0.081 ± 0.061 for the second.

“Transcriptional activator Myb S202P, P10242” and “Transcriptional activator Myb S187C, P10242” are the same in abundance fitness: -0.061 ± 0.14 for the first, -0.061 ± 0.1 for the second.

Going from “Transcriptional activator Myb S187M, P10242” to “Transcriptional activator Myb I154S, P10242”, the abundance fitness falls from -0.188 ± 0.13 to -0.527 ± 0.062.

Compared with “Transcriptional activator Myb I155T, P10242”, “Transcriptional activator Myb K182I, P10242” is higher in abundance fitness: -0.535 ± 0.083 for the first, -0.181 ± 0.14 for the second.

Going from “Transcriptional activator Myb L173E, P10242” to “Transcriptional activator Myb A170G, P10242”, the abundance fitness rises from -0.621 ± 0.088 to -0.229 ± 0.058.

First: Transcriptional activator Myb T188K, P10242
Second: Transcriptional activator Myb G163R, P10242
The abundance fitness of the first is higher: -0.115 ± 0.061 for the first, -0.422 ± 0.059 for the second.

“Transcriptional activator Myb S202V, P10242” and “Transcriptional activator Myb T145S, P10242” are within error of each other in abundance fitness: -0.001 ± 0.064 for the first, -0.042 ± 0.077 for the second.

First: Transcriptional activator Myb I181Q, P10242
Second: Transcriptional activator Myb D152R, P10242
The abundance fitness of the first is lower: -0.756 ± 0.13 for the first, -0.519 ± 0.068 for the second.

“Transcriptional activator Myb T188Q, P10242” and “Transcriptional activator Myb R153V, P10242” are within error of each other in abundance fitness: -0.089 ± 0.078 for the first, -0.199 ± 0.084 for the second.

Compared with “Transcriptional activator Myb G163L, P10242”, “Transcriptional activator Myb K192S, P10242” is higher in abundance fitness: -0.581 ± 0.082 for the first, -0.074 ± 0.093 for the second.

“Transcriptional activator Myb L199D, P10242” and “Transcriptional activator Myb V193P, P10242” are within error of each other in abundance fitness: 0.011 ± 0.12 for the first, -0.198 ± 0.14 for the second.

Going from “Transcriptional activator Myb A170H, P10242” to “Transcriptional activator Myb K192R, P10242”, the abundance fitness rises from -0.716 ± 0.26 to -0.04 ± 0.064.

“Transcriptional activator Myb R190F, P10242” and “Transcriptional activator Myb Q195C, P10242” are within error of each other in abundance fitness: 0.009 ± 0.13 for the first, -0.043 ± 0.12 for the second.

Compared with “Transcriptional activator Myb I169N, P10242”, “Transcriptional activator Myb E168A, P10242” is higher in abundance fitness: -0.91 ± 0.14 for the first, -0.287 ± 0.093 for the second.

“Transcriptional activator Myb D152L, P10242” and “Transcriptional activator Myb R190Y, P10242” are within error of each other in abundance fitness: -0.249 ± 0.075 for the first, -0.461 ± 0.18 for the second.

Going from “Transcriptional activator Myb W147M, P10242” to “Transcriptional activator Myb I169Q, P10242”, the abundance fitness falls from -0.274 ± 0.048 to -0.677 ± 0.16.

First: Transcriptional activator Myb K182Q, P10242
Second: Transcriptional activator Myb A180L, P10242
The abundance fitness of the first is higher: 0.136 ± 0.12 for the first, -0.111 ± 0.073 for the second.

First: Transcriptional activator Myb Y198M, P10242
Second: Transcriptional activator Myb K182F, P10242
The abundance fitness of the first is higher: -0.01 ± 0.1 for the first, -0.383 ± 0.16 for the second.

Going from “Transcriptional activator Myb T148Y, P10242” to “Transcriptional activator Myb G163M, P10242”, the abundance fitness rises from -0.766 ± 0.05 to -0.484 ± 0.12.

“Transcriptional activator Myb G175Q, P10242” and “Transcriptional activator Myb S146P, P10242” are within error of each other in abundance fitness: -0.315 ± 0.12 for the first, -0.108 ± 0.26 for the second.

First: Transcriptional activator Myb R176W, P10242
Second: Transcriptional activator Myb A170L, P10242
The abundance fitness of the first is higher: -0.436 ± 0.064 for the first, -0.743 ± 0.082 for the second.

First: Transcriptional activator Myb K182H, P10242
Second: Transcriptional activator Myb I181R, P10242
The abundance fitness of the first is higher: -0.299 ± 0.16 for the first, -0.933 ± 0.081 for the second.

Going from “Transcriptional activator Myb T145A, P10242” to “Transcriptional activator Myb W166G, P10242”, the abundance fitness falls from -0.066 ± 0.061 to -0.543 ± 0.056.

“Transcriptional activator Myb E194T, P10242” and “Transcriptional activator Myb P174T, P10242” are within error of each other in abundance fitness: -0.001 ± 0.12 for the first, -0.184 ± 0.074 for the second.

Compared with “Transcriptional activator Myb S187F, P10242”, “Transcriptional activator Myb E196L, P10242” is higher in abundance fitness: -0.26 ± 0.085 for the first, -0.03 ± 0.072 for the second.

Going from “Transcriptional activator Myb I181G, P10242” to “Transcriptional activator Myb Y156G, P10242”, the abundance fitness rises from -1.01 ± 0.07 to -0.237 ± 0.034.

First: Transcriptional activator Myb E151C, P10242
Second: Transcriptional activator Myb T177I, P10242
The abundance fitness of the first is lower: -1.1 ± 0.21 for the first, -0.477 ± 0.093 for the second.

Compared with “Transcriptional activator Myb Y156Q, P10242”, “Transcriptional activator Myb I154R, P10242” is lower in abundance fitness: -0.014 ± 0.073 for the first, -0.23 ± 0.046 for the second.

Going from “Transcriptional activator Myb L172S, P10242” to “Transcriptional activator Myb I155L, P10242”, the abundance fitness rises from -0.236 ± 0.085 to -0.068 ± 0.069.

“Transcriptional activator Myb Q200N, P10242” and “Transcriptional activator Myb Y198F, P10242” are within error of each other in abundance fitness: 0.004 ± 0.11 for the first, -0.033 ± 0.17 for the second.

Compared with “Transcriptional activator Myb K192G, P10242”, “Transcriptional activator Myb H184R, P10242” is higher in abundance fitness: -0.219 ± 0.053 for the first, -0.055 ± 0.062 for the second.

“Transcriptional activator Myb N183R, P10242” and “Transcriptional activator Myb A167T, P10242” are within error of each other in abundance fitness: -0.153 ± 0.051 for the first, -0.126 ± 0.12 for the second.

“Transcriptional activator Myb K192I, P10242” and “Transcriptional activator Myb N183L, P10242” are within error of each other in abundance fitness: -0.063 ± 0.14 for the first, -0.074 ± 0.084 for the second.

“Transcriptional activator Myb K143P, P10242” and “Transcriptional activator Myb S202G, P10242” are within error of each other in abundance fitness: -0.406 ± 0.49 for the first, 0.027 ± 0.047 for the second.

First: Transcriptional activator Myb W147Q, P10242
Second: Transcriptional activator Myb E196Y, P10242
The abundance fitness of the first is lower: -0.593 ± 0.055 for the first, -0.306 ± 0.17 for the second.

“Transcriptional activator Myb K182M, P10242” and “Transcriptional activator Myb E168D, P10242” are within error of each other in abundance fitness: 0.037 ± 0.085 for the first, -0.133 ± 0.09 for the second.

Compared with “Transcriptional activator Myb S187E, P10242”, “Transcriptional activator Myb G163V, P10242” is lower in abundance fitness: -0.001 ± 0.067 for the first, -0.537 ± 0.084 for the second.

First: Transcriptional activator Myb H184M, P10242
Second: Transcriptional activator Myb Q200I, P10242
The abundance fitness of the first is lower: -0.623 ± 0.061 for the first, -0.161 ± 0.11 for the second.

“Transcriptional activator Myb G163Y, P10242” and “Transcriptional activator Myb E194R, P10242” are within error of each other in abundance fitness: -0.577 ± 0.46 for the first, -0.102 ± 0.089 for the second.

Going from “Transcriptional activator Myb H184P, P10242” to “Transcriptional activator Myb R176Q, P10242”, the abundance fitness rises from -0.81 ± 0.098 to -0.513 ± 0.16.

“Transcriptional activator Myb R153Y, P10242” and “Transcriptional activator Myb T148K, P10242” are within error of each other in abundance fitness: -0.084 ± 0.11 for the first, -0.212 ± 0.057 for the second.

“Transcriptional activator Myb L172W, P10242” and “Transcriptional activator Myb T145W, P10242” are within error of each other in abundance fitness: -0.303 ± 0.089 for the first, -0.318 ± 0.1 for the second.
